Test results from patent publication US20140050749A1 (PURDUE PHARMA L P, published 2014).
Where no end group is shown, it is not given here. [ ]: non-standard residue; d: D form. Gly(cPent) = N[C@H](C(=O)O)C1CCCC1

B1: E-[c5g]-AGIG-[amv]-LTV (peptide)
peptide: EXAGIGXLTV
modifications: [c5g] (aminocyclopentyl carboxylic acid) at position 2; [amv] at position 7 (abbreviation not defined in the filing)
notes: MART-1 decamer derivative with a double substitution

Assays:
[1] = target: T1, HLA-A2 (HLA-A0201) MHC class I complex (human); assay: ITopia soluble class I plate-based stability assay, 37 C
T1 construct: the methods section names HLA-A0201; also called HLA-A201; MHCI
Experimental: (§1) MHCI complexes were dissociated in each test well using stripping buffer, and the place-holder peptide and beta 2 microglobulin were washed away. 100 uM of the test peptide was added to appropriate wells along with additional beta 2 microglobulin and the anti-HLA ABC antibody, and the plates were incubated overnight at 21° C. Plates were washed, and fresh buffer was added to each well. Plates were shifted to 37° C., and the appropriate wells were read at 0, 0.5, 1, 1.5, 2, 4, 6 and 8 hours.

[2] = target: T1, HLA-A2 (HLA-A0201) MHC class I complex; assay: ITopia soluble class I plate-based stability assay; reference is the native survivin peptide (SEQ ID NO: 31)
Experimental: as §1

| Binder | Half Life of Complex [1] [h] | fold increase in the half life of the HLA-A2 peptide complex compared to the native survivin peptide [2] [fold] |
| --- | --- | --- |
| KVRRAIEQL [Native Survivin 130-138 peptide KVRRAIEQL] | 1.9 |  |
| AXGIGILTV ([cpg] (L-cyclopentylglycine) at position 2, MART-1 nonamer derivative) [A-[cpg]-GIGILTV] | > 100 |  |
| ISTFKNWPF [Native Survivin 19-27 peptide ISTFKNWPF] | 0.24 |  |
| I[Gly(cPent)]TFKNWPF (Survivin 19-27 derivative) [I-[cpg]-TFKNWPF] | 1.9 |  |
| K[Gly(cPent)]RRAIEQL (Survivin 130-138 derivative) [K-[cpg]-RRAIEQL] | 50.6 | > 20 |
| B1 | 11.9 |  |
